Experimental findings from patent publication US20050013820A1 (REGENTS OF THE UNIVERSITY OF MICHIGAN, published 2005) are described below.

Assay [1] deals with T1, cell surface calreticulin on human fibroblastoid M1 cells (human, UniProt P27797 18-417).
T1 sequence (looked up): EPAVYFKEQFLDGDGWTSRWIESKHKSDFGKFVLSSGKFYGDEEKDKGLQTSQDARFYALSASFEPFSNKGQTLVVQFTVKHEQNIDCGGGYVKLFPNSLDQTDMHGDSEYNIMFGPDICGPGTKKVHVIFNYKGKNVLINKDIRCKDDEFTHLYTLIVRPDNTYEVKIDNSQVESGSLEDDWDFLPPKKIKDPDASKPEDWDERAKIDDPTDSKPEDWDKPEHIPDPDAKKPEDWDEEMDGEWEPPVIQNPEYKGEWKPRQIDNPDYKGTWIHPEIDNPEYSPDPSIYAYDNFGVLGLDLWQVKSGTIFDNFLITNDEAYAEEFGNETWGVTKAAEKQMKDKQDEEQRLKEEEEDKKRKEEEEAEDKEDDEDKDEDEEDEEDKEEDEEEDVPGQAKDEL
The assay can be described thus: cell-based or functional assay.

For assay [2], the target named is T2, recombinant human calreticulin (human, UniProt P27797 18-417).
T2 construct: Expressed in E. coli as a GST fusion; also called Crt; purified recombinant calreticulin
T2 sequence: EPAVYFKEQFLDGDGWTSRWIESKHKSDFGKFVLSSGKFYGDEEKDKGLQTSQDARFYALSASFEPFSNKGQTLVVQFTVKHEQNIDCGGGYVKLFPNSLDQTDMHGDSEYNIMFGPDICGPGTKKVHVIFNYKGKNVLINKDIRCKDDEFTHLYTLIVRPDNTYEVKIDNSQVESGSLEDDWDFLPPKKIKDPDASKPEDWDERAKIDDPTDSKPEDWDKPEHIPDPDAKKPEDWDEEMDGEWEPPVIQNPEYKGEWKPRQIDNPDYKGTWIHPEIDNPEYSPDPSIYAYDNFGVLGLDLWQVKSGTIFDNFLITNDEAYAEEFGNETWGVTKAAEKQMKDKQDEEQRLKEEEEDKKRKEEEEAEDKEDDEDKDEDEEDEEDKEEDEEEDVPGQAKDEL
The assay can be described thus: SPR (Biacore 2000), calreticulin immobilized on CM5. A general note: In SPR one partner is held on a chip, and binding of the other changes the refractive index at the surface.
Protocol: Prior to use, biosensor chips CM5 were docked into a Biacore® 2000 and preconditioned in water at 100 μl/min by applying two consecutive 20-μl pulses of 50 mM NaOH, then 10 mM HCl, and finally 0.1% SDS. […] Immobilizations were conducted at 25° C. in HBS-EP (10 mM HEPES, pH7.4, 150 mM NaCl, 1 mM EDTA, 0.005% Surfactant P-20), with a flow of 10 μl/min. The CM5 surface was activated by 7 min injection of 200 mM EDC/50 mM NHS to prepare a high-capacity surface, with manual injection of 100 μg/ml calreticulin until 5500 RU level was approached. Then 100 μl of 1M ethanolamine was used to block remaining activated group.
Calreticulin and peptide binding were performed at 25° C. in binding buffer (10 mM HEPES, pH8.0, 50 mM KCl, 0.5 mM CaCl₂, 1% Triton-X100), with a flow rate of 10 μl/min. […] Binding assays were repeated at least 3 times. Kinetic analysis was performed using Kinetic separate kₐ/kd fitting in BIA evaluation 3.0 software.

B1: pentapeptide DKCLA (peptide)
peptide: DKCLA
As for B1, the “inhibition of NO induction by Sepharose bead-bound 65-79*0401 in M1 cells; IC50” value in assay [1] is about 35 µM.

B2: pentapeptide QKRAE (peptide)
peptide: QKRAE
notes: Synthetic pentapeptide
For the molecule B2, in assay [2], the binding result is reported as “no binding”.

B3: peptide 65-78*0401 (peptide)
peptide: KDLLEQKRAAVDTY
For B3, the “inhibition of cAMP-mediated (2CA-induced) DNA repair induction in cells; IC50” value in assay [1] is about 250 nM.
